Test results: patent US20210147507A1, “METHODS TO AUGMENT OR ALTER SIGNAL TRANSDUCTION” (Bellicum Pharmaceuticals, Inc., priority 2017, published 2021)
Where a chain is given by its changes, count along the chain named. Names may count otherwise. Values belong to the molecule of their own block, whether it stands above or below them.

Test system: chimeric Caspase-9 polypeptide
Experiment: Caspase-9 mutant classes and basal activity (Table 5)
Assay type: cell-based
Details: Caspase-9 mutant class; for Basal Activity: basal (ligand-independent) signaling compared with unmodified chimeric Caspase-9; for IC50: ligand IC50 compared with unmodified chimeric Caspase-9

Chain of chimeric Caspase-9 polypeptide (P62942 2-108 F37V limits assumed): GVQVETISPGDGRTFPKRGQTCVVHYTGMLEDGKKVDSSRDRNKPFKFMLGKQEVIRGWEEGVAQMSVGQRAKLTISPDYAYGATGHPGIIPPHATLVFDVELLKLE

- Basal Activity: Similar
- IC50: Similar
B6: C403A (protein)
chain: GFGDVGALESLRGNADLAYILSMEPCGHCLIINNVNFCRESGLRTRTGSNIDCEKLRRRFSSLHFMVEVKGDLTAKKMVLALLELARQDHGALDCCVVVILSHGCQASHLQFPGAVYGTDGCPVSVEKIVNIFNGTSCPSLGGKPKLFFIQACGGEQKDHGFEVASTSPEDESPGSNPEPDATPFQEGLRTFDQLDAISSLPTPSDIFVSYSTFPGFVSWRDPKSGSWYVETLDDIFEQWAHSEDLQSLLLRVANAVSVKGIYKQMPGAFNFLRKKLFFKTSASRA

- Basal Activity: Increased
B9: D327R (protein)
chain: B6 chain with D193R, A269C

- Basal Activity: Similar
- IC50: Similar
B11: C403S (protein)
chain: B6 chain with A269S

- Basal Activity: Increased
B14: A331K (protein)
chain: B6 chain with A197K, A269C

- Basal Activity: Similar
- IC50: Similar
B15: C403T (protein)
chain: B6 chain with A269T

- Basal Activity: Increased
B17: L329K (protein)
chain: B6 chain with L195K, A269C

- Basal Activity: Increased
B19: N405T (protein)
chain: B6 chain with A269C, N271T

- Basal Activity: Increased
B22: D330A-N405T (protein)
chain: B6 chain with D196A, A269C, N271T

- Basal Activity: Increased
B23: Q328K (protein)
chain: B6 chain with Q194K, A269C

- Basal Activity: Similar
- IC50: Similar
B24: N405A (protein)
chain: B6 chain with A269C, N271A

- Basal Activity: Increased
B25: Q328R (protein)
chain: B6 chain with Q194R, A269C

- Basal Activity: Increased
B26: D327G (protein)
chain: B6 chain with D193G, A269C

- Basal Activity: Increased
B27: L329G (protein)
chain: B6 chain with L195G, A269C

- Basal Activity: Increased
B30: D327K (protein)
chain: B6 chain with D193K, A269C

Further lines, the molecule ahead of its results:

B1: 316ATPF^319AVPI (SMAC/Diablo) (protein, UniProt P55211 1-416, looked up, variant T317V F319I)
chain: MDEADRRLLRRCRLRLVEELQVDQLWDALLSRELFRPHMIEDIQRAGSGSRRDQARQLIIDLETRGSQALPLFISCLEDTGQDMLASFLRTNRQAAKLSKPTLENLTPVVLRPEIRKPEVLRPETPRPVDIGSGGFGDVGALESLRGNADLAYILSMEPCGHCLIINNVNFCRESGLRTRTGSNIDCEKLRRRFSSLHFMVEVKGDLTAKKMVLALLELAQQDHGALDCCVVVILSHGCQASHLQFPGAVYGTDGCPVSVEKIVNIFNGTSCPSLGGKPKLFFIQACGGEQKDHGFEVASTSPEDESPGSNPEPDAVPIQEGLRTFDQLDAISSLPTPSDIFVSYSTFPGFVSWRDPKSGSWYVETLDDIFEQWAHSEDLQSLLLRVANAVSVKGIYKQMPGCFNFLRKKLFFKTS
- Basal Activity: Similar
- IC50: Similar

B2: 402GCFNF^406YCSTL (Casp-2) (protein, UniProt P55211 1-416, looked up, variant G402Y F404S N405T F406L)
chain: B1 chain with V317T, I319F, G402Y, F404S, N405T, F406L
- Catalytic activity (class 'Catalytically dead'): dead

B3: 402GCFNF^406CIVSM (Casp-3) (protein, UniProt P55211 1-416, looked up, variant G402C C403I F404V N405S F406M)
chain: B1 chain with V317T, I319F, G402C, C403I, F404V, N405S, F406M
- Catalytic activity (class 'Catalytically dead'): dead

B4: 402GCFNF^406QPTFT (Casp-8) (protein, UniProt P55211 1-416, looked up, variant G402Q C403P F404T N405F F406T)
chain: B1 chain with V317T, I319F, G402Q, C403P, F404T, N405F, F406T
- Catalytic activity (class 'Catalytically dead'): dead

B5: 402GCFNF^406AAAAA (protein, UniProt P55211 1-416, looked up, variant G402A C403A F404A N405A F406A)
chain: B1 chain with V317T, I319F, G402A, C403A, F404A, N405A, F406A
- Catalytic activity (class 'Catalytically dead'): dead

B7: F404A (protein)
chain: B6 chain with A269C, F270A
- Catalytic activity (class 'Catalytically dead'): dead

B8: G402Y (protein)
chain: B6 chain with G268Y, A269C
- Catalytic activity (class 'Catalytically dead'): dead

B10: G402Q (protein)
chain: B6 chain with G268Q, A269C
- Catalytic activity (class 'Catalytically dead'): dead

B12: F406L (protein)
chain: B6 chain with A269C, F272L
- Catalytic activity (class 'Catalytically dead'): dead

B13: F319A (protein)
chain: B6 chain with F185A, A269C
- Basal Activity: Similar
- IC50: Similar

B16: G402A (protein)
chain: B6 chain with G268A, A269C
- Catalytic activity (class 'Catalytically dead'): dead

B18: T317E (protein)
chain: B6 chain with T183E, A269C
- Basal Activity: Increased

B20: F326K (protein)
chain: B6 chain with F192K, A269C
- Basal Activity: Increased

B21: D315A-D330A (protein)
chain: B6 chain with D181A, D196A, A269C
- Catalytic activity (class 'Catalytically dead'): dead

B28: T317C (protein)
chain: B6 chain with T183C, A269C
- Basal Activity: Similar
- IC50: Similar

B29: F404S (protein)
chain: B6 chain with A269C, F270S
- Catalytic activity (class 'Catalytically dead'): dead

B31: D330A-Y153F (protein)
chain: B6 chain with Y19F, D196A, A269C
- Catalytic activity (class 'Catalytically dead'): dead

B32: D330A-T317E (protein)
chain: B6 chain with T183E, D196A, A269C
- Catalytic activity (class 'Catalytically dead'): dead

B33: P318A (protein)
chain: B6 chain with P184A, A269C
- Basal Activity: Similar
- IC50: Similar

B34: D330A-Y153A (protein)
chain: B6 chain with Y19A, D196A, A269C
- Catalytic activity (class 'Catalytically dead'): dead

B35: G402I (protein)
chain: B6 chain with G268I, A269C
- Catalytic activity (class 'Catalytically dead'): dead
